{"source": "the nanobody polyreactivity screen of Harvey et al. (2022)", "data": [{"experiment": "yeast display, Sf9 membrane polyspecificity reagent, FACS + sequencing; frameworks hold sequencing errors", "in_short": "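Genes from sorted yeast were amplified by colony PCR, read by MiSeq 2 × 250 sequencing and filtered on CDR length. These cells carried a synthetic nanobody library in Saccharomyces cerevisiae BJ5465 and were sorted by FACS into low and high (top ~1%) gates on anti-HA and streptavidin fluorescence. Polyreactivity is labelled according to the gate of origin.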", "values": [{"sequence": "QVQLVESGGGLVQAGGSLRLSCAASGRTFGQNAMGWYRQAPGKERELVAAISASGSNTYYADSVKGRFTISRDNAKNTVYVQMNSLKPEDTAVYYCAKQVYRPGQQSRYDYWGQGTQVTVSS", "polyreactivity (PSR sort gate)": "low polyreactivity"}, {"sequence": "QVQLVESGGGLVQAGGSLRLSCAASGRTFGQYALGGSRKAPGKERELVATITRTARTNYADSVKGRFTISRDNAKNTVYLQMNSLKPEDTAVYYCAKGWPAIYGTYDYCGQGTQVTVSS", "polyreactivity (PSR sort gate)": "high polyreactivity"}, {"sequence": "QVQLVESGGGLVQAGGSLRLSCAASGRTFGRNAMGWYRQAPGERELVAVISRGGSTYYADSVKGRFTISRDNAKNTVYLQMNSLKPEDTAVYYCNADTVYTRNATYDYWGQCTQVTVSS", "polyreactivity (PSR sort gate)": "low polyreactivity"}, {"sequence": "QVQLVESGGGLVQAGGSLRLSCAASGRTFGRNAMGWYRQAPGKERELVAAINGNGGRTSYADSVKGRFTISRDNAKNTVYLPMNSLKPEDTAVYYCNKYTPGWYRYYYWGQGTQVTVSS", "polyreactivity (PSR sort gate)": "high polyreactivity"}, {"sequence": "QVQLVESGGGLVQAGGSLRLSCAASGRTFGRNAMGWYRQAPGKERELVAAISSSGASTYYADSVKGRFTISRDNAKNTVYLQMNSLKPEDTAVYYCAKDVWGSRYAYDYWGQGTQVTVSS", "polyreactivity (PSR sort gate)": "low polyreactivity"}, {"sequence": "QVQLVESGGGLVQAGGSLRLSCAASGRTFGRNTMGWYRQAPGKERELVAAIDWSGGSTYYADSVKGRFTISRDNAKNTVYLQMNSLKPEDTAVYYCAAKTRWNFYYWGQGTQVTVSS", "polyreactivity (PSR sort gate)": "high polyreactivity"}, {"sequence": "QVQLVESGGGLVQAGGSLRLSCAASGRTFGRYAMGWYRQAPGKERELVAAINSGSASTYYADSVKGRFTISRDNAKNTVYLQMNSLKPEDTAVYYCAVYGYWSKSDYWGQGTQVTVSS", "polyreactivity (PSR sort gate)": "high polyreactivity"}, {"sequence": "QVQLVESGGGLVQAGGSLRLSCAASGRTFGRYTMGWYRQAPGKERELVATIRFNGGSTYYADSVKGRFTISRDNAKNTVYLQMNSLKPEDTAVYYCASYRGAYWGQGTQVTVSS", "polyreactivity (PSR sort gate)": "high polyreactivity"}, {"sequence": "QVQLVESGGGLVQAGGSLRLSCAASGRTFGRYVMGWYRQAPGKERELVAAIDGSGGSTYYADSVKGRFTISRDNAKNTVYLQMNSLKPEDTAVYYCNADVGFVGGDYWGQGTQVTVSS", "polyreactivity (PSR sort gate)": "high polyreactivity"}, {"sequence": "QVQLVESGGGLVQAGGSLRLSCAASGRTFGSYAMGWYRQAPGKEREFVASISRRGGSTYYADSVKVRFTISRDNAKNTVYLQINSLKPEDTAVYYCAAGVPASWFDYWGQGTQVTVSS", "polyreactivity (PSR sort gate)": "high polyreactivity"}, {"sequence": "QVQLVESGGGLVQAGGSLRLSCAASGRTFGSYAMGWYRQAPGKERELVAAISSSGGRTYYADSVKGRFTISRDNAKTTVYLQMNSLKPEDTAVYSCNARWRFLYDYWGQGTQVTVSS", "polyreactivity (PSR sort gate)": "high polyreactivity"}, {"sequence": "QVQLVESGGGLVQAGGSLRLSCAASGRTFGSYAMGWYRQAPGKERELVAAITASGVRTYYADSVKGRFTISRDNAKNTVYLQMNSLKPEDTAVYYCNARRLSTVQYDYWGQGTQVTVSS", "polyreactivity (PSR sort gate)": "high polyreactivity"}, {"sequence": "QVQLVESGGGLVQAGGSLRLSCAASGRTFGSYAMGWYRQAPGKERELVAAITTDASTNYADSVKGRFTISRDNAKNTVYLQMNSLKPEDTAVYYCAKRKRTNYGFWGQGTQVTVSS", "polyreactivity (PSR sort gate)": "low polyreactivity"}, {"sequence": "QVQLVESGGGLVQAGGSLRLSCAASGRTFGSYGMGWYRQAPGKERELVAAISRSVGSTYYADSVKGRFTISRDNAKITVYLQMNSLKPEDTAVYYCNTVDRRRYAGHYYWGQGTQVTVSS", "polyreactivity (PSR sort gate)": "high polyreactivity"}, {"sequence": "QVQLVESGGGLVQAGGSLRLSCAASGRTFGSYVMGWYRQAPGKERELVAAISSRGTRTYYADSVKGRFTISRDNAKNTVYLQMNSLKPEDTAVYYCAAEWPYRFQYGEMDYWGQGTQVTVSS", "polyreactivity (PSR sort gate)": "high polyreactivity"}, {"sequence": "QVQLVESGGGLVQAGGSLRLSCAASGRTFGTYAMGWYRQAPGKDRELVAAISRRGGTTYYADSVKGRFTISRDNAKNTVYLQMNSLKPEDTAVYYCARASWSITTVLSTMDYWGQGTQVTVSS", "polyreactivity (PSR sort gate)": "high polyreactivity"}, {"sequence": "QVQLVESGGGLVQAGGSLRLSCAASGRTFGVNAMGWYRQAPGKEREFVAAISRSTGSTYYADSVKGRFTISRDNAKNTVYLQMNSLKPEDTAVYYCAVKGASYPAYRGYDYWGQGTQVTVSS", "polyreactivity (PSR sort gate)": "high polyreactivity"}, {"sequence": "QVQLVESGGGLVQAGGSLRLSCAASGRTFGVNAMGWYRQAPGKERELVARIRVSGGRTYYADSVKGLFTISRDNAKNTVYLQMNSLKPEDTAVYYCNAGYTYNRVIWPYYYWGQGTQVTVSS", "polyreactivity (PSR sort gate)": "high polyreactivity"}, {"sequence": "QVQLVESGGGLVQAGGSLRLSCAASGRTFGVNTMGCYRQAPGKEREFVASISTSGGSTYADSVNGRFTISRDNAKNTVYLQMNSLKPEDTAVYYCAKDTDAVYDEYDSWGQGTQVTVSS", "polyreactivity (PSR sort gate)": "low polyreactivity"}, {"sequence": "QVQLVESGGGLVQAGGSLRLSCAASGRTFGVNTMGWYRQAPGKERELVASISTSGGSTYADSVKGRFTISRDNAKNTVYLQMNSLKPEDTAVYYCAKDTDAVYDEYDSWGQGTQVTVSS", "polyreactivity (PSR sort gate)": "low polyreactivity"}, {"sequence": "QVQLVESGGGLVQAGGSLRLSCAASGRTFGVYAMGWYRQAPGKERELVAGIRWRGGSTYYADSVKGRFTISRDNAKNTVYLQMNSLKPEDTAVYYWAARVQFPYPDYAWITVLYDYWGQCTQVTVSS", "polyreactivity (PSR sort gate)": "low polyreactivity"}, {"sequence": "QVQLVESGGGLVQAGGSLRLSCAASGRTFGVYAMGWYRQAPGKERELVARIRYSGGTTRYADSVKGRFTISRDNAKITVYFQMNSLKPEDTAVYYCAARSGYFRSRFDYWGQGTQVTVSS", "polyreactivity (PSR sort gate)": "high polyreactivity"}, {"sequence": "QVQLVESGGGLVQAGGSLRLSCAASGRTFGVYVMGWYRQAPGKERELVAAIRIGDSTNYADSVKGRFTISRDNAKNTVYLQMNSLKPEDTAVYYCNAYRVRYTVDSVFYGYDYWGQGTQVTVSS", "polyreactivity (PSR sort gate)": "high polyreactivity"}, {"sequence": "QVQLVESGGGLVQAGGSLRLSCAASGRTFGVYVMGWYRQAPGKERELVAVITISGGSTYYADSVKGRFTISRDNAKNTVYLQMNSLKPEDTAVYYCAARTYYGYDYWGQGTQVTVSS", "polyreactivity (PSR sort gate)": "high polyreactivity"}, {"sequence": "QVQLVESGGGLVQAGGSLRLSCAASGRTFGWNAMGWYRQAPGKERELVAAITRGGITNYADSVKGRFTISRDNAKNTVYLQMNSLKPEDTAVYYCNKKFYRGASRYYYWGQGTQVTVSS", "polyreactivity (PSR sort gate)": "high polyreactivity"}, {"sequence": "QVQLVESGGGLVQAGGSLRLSCAASGRTFGWYAMGWYRQAPGKERELVAAISSSDDSTYYADSVKGRFTISRDNAKNTVYLQMNSLKPEDTAVYYCAADGYPDPYKVRFGYWGQGTQVTVSS", "polyreactivity (PSR sort gate)": "low polyreactivity"}, {"sequence": "QVQLVESGGGLVQAGGSLRLSCAASGRTFGWYTMGRYRQAPGKERELVAGISSSGGSTYYADSVKGRFTISRDNAKNTVYLQMNSLKPEDTAVYYCARETYPHGLYYRPYDYWGQGTQVTVSS", "polyreactivity (PSR sort gate)": "low polyreactivity"}, {"sequence": "QVQLVESGGGLVQAGGSLRLSCAASGRTFGYNAMGWNRQAPGKERELVAAINWSGASTYYADSVKGRFTISRDNAKNTVYFQMNSLKPADTAVYYCAADYSYIYGFDYWGQGTQVTVSS", "polyreactivity (PSR sort gate)": "low polyreactivity"}, {"sequence": "QVQLVESGGGLVQAGGSLRLSCAASGRTFGYNAMGWYRQAPGKEREFVAAITWSGGRTYYADSVKGRFTISRDNAKNTVYLQMISLKPEDTAVYYCAAVLGRPLHGVAYGYWGQGTQVTVSS", "polyreactivity (PSR sort gate)": "low polyreactivity"}, {"sequence": "QVQLVESGGGLVQAGGSLRLSCAASGRTFGYNAMGWYRQAPGKERELVAAISYSGGRTYYADSVKGRFTISRDNAKNTVYLQMNSLKPEDTAVYYCAAKNPYKYDYWGQGTQVTVSS", "polyreactivity (PSR sort gate)": "high polyreactivity"}, {"sequence": "QVQLVESGGGLVQAGGSLRLSCAASGRTFGYNAMGWYRQAPGKERELVAAITRGGSTYYADSVKGRFTISRDNAKNTVYLQMNSLKPEDTAVYYCAAKSYWSGYFVGYEYWGQGTQVTVSS", "polyreactivity (PSR sort gate)": "high polyreactivity"}, {"sequence": "QVQLVESGGGLVQAGGSLRLSCAASGRTFGYNAMGWYRQAPGTERELVAGITGTGGTTNYADSVKGRFTISRDNAKNTVYLQMNSLKPEDTAVYYCNKDYDVSSEKEPLGYWGQGTQVTVSS", "polyreactivity (PSR sort gate)": "low polyreactivity"}, {"sequence": "QVQLVESGGGLVQAGGSLRLSCAASGRTFGYNGMGWYRQAPGKERELVAAINSGGNTNYADSVKGRFTISRDNAKNTVYLQMNSLKPEDTSVYYCAKYGTLFEPVPNEYDYWGQGTQVTVSS", "polyreactivity (PSR sort gate)": "low polyreactivity"}, {"sequence": "QVQLVESGGGLVQAGGSLRLSCAASGRTFGYNVMGWYRQAPGKERELVARITSGGNTKYADSVKGRFTISRDNAKNTVYLQMNSLKPEDTAVYYCAKRPLGVRGIYFQYDYWGQGTQVTVSS", "polyreactivity (PSR sort gate)": "high polyreactivity"}, {"sequence": "QVQLVESGGGLVQAGGSLRLSCAASGRTFGYTMGWYRQAPGKERELVAAITRSVTTYYADSVKGRFTISRDNAKNTVYLQMNSLKPEDTAVYYCAARPKYPYGRFGYYWGQGTQVTVSS", "polyreactivity (PSR sort gate)": "high polyreactivity"}, {"sequence": "QVQLVESGGGLVQAGGSLRLSCAASGRTFGYYAMGWYRPAPGKERELVAAITRTGGSTHYADSVKGRFTISRDNAKNTVYLQMNSLKPEDTAVYYCAVDYHQAWPSADYWFEYDYWGQGTQVTVSS", "polyreactivity (PSR sort gate)": "low polyreactivity"}, {"sequence": "QVQLVESGGGLVQAGGSLRLSCAASGRTFGYYAMGWYRQAPGKEREFVAAISSRGGSTRYADSVKGRFTISRDNAKNTVYLQMNSLKPEDTAVYYCNKGYYRHPDESDYGGQGTQVTVSS", "polyreactivity (PSR sort gate)": "high polyreactivity"}, {"sequence": "QVQLVESGGGLVQAGGSLRLSCAASGRTFGYYAMGWYRQAPGKERELVAAINSRGGSTYYADSVKGRFTISRDNAKNTVYLQMNSLKPEDTAVYYCAVVRWRQYIFATYDYWGQGTQVTVSS", "polyreactivity (PSR sort gate)": "high polyreactivity"}, {"sequence": "QVQLVESGGGLVQAGGSLRLSCAASGRTFGYYAMGWYRQAPGKERELVAAISRGGRTNYADSVKGRFTISRDNAKNTVYLQMNSLKPEDTAVYYCAKSGTIPRYTASYSLLDYWGQGTQVTVSS", "polyreactivity (PSR sort gate)": "low polyreactivity"}, {"sequence": "QVQLVESGGGLVQAGGSLRLSCAASGRTFGYYAMGWYRQAPGKERELVAAISSRSSTTYYADSVKGRFTISRDNAKNTVYLQMNSLKTEDNAVYYCNVAYGEWKTFDYWGQGTQVTVSS", "polyreactivity (PSR sort gate)": "high polyreactivity"}, {"sequence": "QVQLVESGGGLVQAGGSLRLSCAASGRTFGYYAMGWYRQAPGKERELVAAISWRGGSTYYADSVKGRFTISRDNAKNTVYLQMNSLKPEDTAVYYCHRAYVYPQGPYPYDYWGQGTQVTVSS", "polyreactivity (PSR sort gate)": "high polyreactivity"}]}]}
